Where no end group is shown, it is not given here.

The labels stand for the following.
B1: Bag-1: cochaperone Bag-1, HA-tagged (pcDNA3.1-HA-Bag-1), or endogenous (protein)
chain: TPLSALGIQDGCRVMLIGKKNSPQEEVELKKLKHLEKSVEKIADQLEELNKELTGIQQGFLPKDLQAE
modifications: left off: HA, end not stated, kept
notes: cochaperone Bag-1, HA-tagged (pcDNA3.1-HA-Bag-1), or endogenous
B2: Bag-1 peptide: internal sequence of 68 amino acids of Bag-1 (Bag1-L 202–269), HA-tagged, expressed from pcDNA3 (peptide)
chain: B1 chain
modifications: also: HA tag, end not given here

This assay has as its system GRP78/BiP. The experiment in a line: In vivo luciferase refolding assay in HEK-293 cells. Format: cell-based. The conditions noted are these: heat shock 45°C 30 min, relative to non-heat-shocked cells, mean of three independent experiments ± SEM. As for the experimental part: In vivo refolding assay was performed essentially according to the method described by. HEK-293 in a 70%-confluent 10 cm dish were transfected with β-actin-fire fly luciferase construct (2 µg), pcMV6-GRP78 (3 µg), Bag-1 or Bag-1 peptides in pcDNA3.1-HA (6 µg) and Renilla luciferase construct (0.5 µg) for equal transfection control. Two days after transfection the cells were divided into two and incubated in heat shock buffer (MOPS 20 mM and cycloheximide 20 µg/ml) for 30 min at 37°C. One half of the transfected cells was heat shocked for 30 min at 45°C and allowed to recover at 37°C for 30 min. The other half was left untreated and used as control. At the end of the experiments, the cells were harvested, lysed and luciferase activity was measured. The activity measured for the non-heat shocked cells was set as 100% of refolded luciferase and the activity measurements of the heat shocked cells were expressed relative this value.
Figure 2 Identification of Bag-1 peptide interfering with the action of GRP78/BiP. […] Depicted in blue and red are the ubiquitin-like domain and the BAG domain respectively. B. Identification of the Bag-1 peptide binding to GRP78/BiP. […] Western blot analysis with an HA antibody to detected the Bag-1 mutants is shown. […] Thereafter luciferase activity was measured. Results are expressed as percentage of refolding activity relative to non-heat-shocked cells and presented as bar charts of the average of three independent experiments ± SEM. *p<0.05.
Figure 6 Selectivity of action of the Bag-1 peptide. […] Fluorescence polarization (FP) assays with a 10 nM FITC-labeled 7-mer Bag-1 peptide and dilutions of the GST-fused substrate binding domain of GRP78 in 60 µl of Tris-GSH buffer (50 mM Tris, 10 mM reduced glutathione and 0.1% BSA, pH 8.0). Triplicate samples were measured after 5 h of incubation at room temperature with an Infinite F-200 reader (Tecan) with excitation at 490 nm and emission at 535 nm. Binding constants were determined from three independent experiments using non-linear regression in Sigma Plot 10.0. […]
For the molecule “19-mer: Bag-1L 202–220 (TPLSALGIQDGCRVMLIGK; not fully specified)”, the “GRP78/BiP refolding activity (luciferase)” value (from here on “GRP78/BiP refolding activity”) is recorded as “inhibited the ability of GRP78/BiP to refold denatured protein”.
As to B1, the “GRP78/BiP refolding activity” value was “reduced to the control level”.
Regarding B2, the “GRP78/BiP refolding activity” value was “reduced to the control level”.

The values above are taken from paper PMC3462190, “A Peptidic Unconjugated GRP78/BiP Ligand Modulates the Unfolded Protein Response and Induces Prostate Cancer Cell Death” (PLoS ONE, 2012).
